Patent US20130225506A1 (POLYPHOR, published 2013)
Square brackets hold non-standard residues; d marks the D form. Primed or numbered codes have the meaning given here. dPro(cis-4-NH2) = N[C@H]1CN[C@@H](C(=O)O)C1; dPro(4S-NH2) = N[C@@H]1CN[C@@H](C(=O)O)C1; 1Nal = N[C@@H](Cc1cccc2ccccc12)C(=O)O; 2Nal = N[C@@H](Cc1ccc2ccccc2c1)C(=O)O; Pro(3S-OH) = O=C(O)[C@H]1NCC[C@@H]1O; dCit = NC(=O)NCCC[C@@H](N)C(=O)O; Tic = O=C(O)[C@@H]1Cc2ccccc2CN1; Agb = N=C(N)NCC[C@H](N)C(=O)O; Agp = N=C(N)NC[C@H](N)C(=O)O; Orn = NCCC[C@H](N)C(=O)O; dPip′ = not defined here; Dab = NCC[C@H](N)C(=O)O; Pip′ = not defined here

B1: cyclo(-Ile-^DArg-Agp-Trp-^DPro-Thr-) (peptide)
peptide: cyclo(I[dR][Agp]W[dP]T)
SMILES: CC[C@H](C)[C@@H]1NC(=O)[C@H]([C@@H](C)O)NC(=O)[C@H]2CCCN2C(=O)[C@H](Cc2c[nH]c3ccccc23)NC(=O)[C@H](CNC(=N)N)NC(=O)[C@@H](CCCNC(=N)N)NC1=O
B2: cyclo(-Tyr-^DPhe-Trp-Arg-^DPro((4R)NH2)-Tic-) (peptide)
peptide: cyclo(Y[dF]WR[dPro(cis-4-NH2)][Tic])
SMILES: N=C(N)NCCC[C@@H]1NC(=O)[C@H](Cc2c[nH]c3ccccc23)NC(=O)[C@@H](Cc2ccccc2)NC(=O)[C@H](Cc2ccc(O)cc2)NC(=O)[C@@H]2Cc3ccccc3CN2C(=O)[C@H]2C[C@@H](N)CN2C1=O
B3: cyclo(-Ile-^DArg-Arg-Trp-^DPro-Ser-) (peptide)
peptide: cyclo(I[dR]RW[dP]S)
SMILES: CC[C@H](C)[C@@H]1NC(=O)[C@H](CO)NC(=O)[C@H]2CCCN2C(=O)[C@H](Cc2c[nH]c3ccccc23)NC(=O)[C@H](CCCNC(=N)N)NC(=O)[C@@H](CCCNC(=N)N)NC1=O
B4: cyclo(-Ala-^DPhe-Trp-Arg-^DPro((4R)NH2)-Tic-) (peptide)
peptide: cyclo(A[dF]WR[dPro(cis-4-NH2)][Tic])
SMILES: C[C@@H]1NC(=O)[C@@H]2Cc3ccccc3CN2C(=O)[C@H]2C[C@@H](N)CN2C(=O)[C@H](CCCNC(=N)N)NC(=O)[C@H](Cc2c[nH]c3ccccc23)NC(=O)[C@@H](Cc2ccccc2)NC1=O
B5: cyclo(-Trp-^DPhe-Trp-Arg-^DPro((4S)NH2)-Tic-) (peptide)
peptide: cyclo(W[dF]WR[dPro(4S-NH2)][Tic])
SMILES: N=C(N)NCCC[C@@H]1NC(=O)[C@H](Cc2c[nH]c3ccccc23)NC(=O)[C@@H](Cc2ccccc2)NC(=O)[C@H](Cc2c[nH]c3ccccc23)NC(=O)[C@@H]2Cc3ccccc3CN2C(=O)[C@H]2C[C@H](N)CN2C1=O
B6: cyclo(-Trp-^DPhe-Trp-Arg-^DPro((4R)NH2)-Tic-) (peptide)
peptide: cyclo(W[dF]WR[dPro(cis-4-NH2)][Tic])
SMILES: N=C(N)NCCC[C@@H]1NC(=O)[C@H](Cc2c[nH]c3ccccc23)NC(=O)[C@@H](Cc2ccccc2)NC(=O)[C@H](Cc2c[nH]c3ccccc23)NC(=O)[C@@H]2Cc3ccccc3CN2C(=O)[C@H]2C[C@@H](N)CN2C1=O
B7: cyclo(-Thr-^DArg-Trp-Arg-^DPro-Thr-) (peptide)
peptide: cyclo(T[dR]WR[dP]T)
SMILES: C[C@@H](O)[C@@H]1NC(=O)[C@H]([C@@H](C)O)NC(=O)[C@H]2CCCN2C(=O)[C@H](CCCNC(=N)N)NC(=O)[C@H](Cc2c[nH]c3ccccc23)NC(=O)[C@@H](CCCNC(=N)N)NC1=O
B8: cyclo(-Ile-^DArg-Agb-Trp-^DPro-Thr-) (peptide)
peptide: cyclo(I[dR][Agb]W[dP]T)
SMILES: CC[C@H](C)[C@@H]1NC(=O)[C@H]([C@@H](C)O)NC(=O)[C@H]2CCCN2C(=O)[C@H](Cc2c[nH]c3ccccc23)NC(=O)[C@H](CCNC(=N)N)NC(=O)[C@@H](CCCNC(=N)N)NC1=O
B9: cyclo(-Ile-^DArg-Arg-Tyr-^DPro-Thr-) (peptide)
peptide: cyclo(I[dR]RY[dP]T)
SMILES: CC[C@H](C)[C@@H]1NC(=O)[C@H]([C@@H](C)O)NC(=O)[C@H]2CCCN2C(=O)[C@H](Cc2ccc(O)cc2)NC(=O)[C@H](CCCNC(=N)N)NC(=O)[C@@H](CCCNC(=N)N)NC1=O
B10: cyclo(-Ile-^DArg-Lys-Trp-^DPro-Thr-) (peptide)
peptide: cyclo(I[dR]KW[dP]T)
SMILES: CC[C@H](C)[C@@H]1NC(=O)[C@H]([C@@H](C)O)NC(=O)[C@H]2CCCN2C(=O)[C@H](Cc2c[nH]c3ccccc23)NC(=O)[C@H](CCCCN)NC(=O)[C@@H](CCCNC(=N)N)NC1=O
B11: cyclo(-Trp-^DPhe-Trp-Dab-^DPro((4R)NH2)-Tic-) (peptide)
peptide: cyclo(W[dF]W[Dab][dPro(cis-4-NH2)][Tic])
SMILES: NCC[C@@H]1NC(=O)[C@H](Cc2c[nH]c3ccccc23)NC(=O)[C@@H](Cc2ccccc2)NC(=O)[C@H](Cc2c[nH]c3ccccc23)NC(=O)[C@@H]2Cc3ccccc3CN2C(=O)[C@H]2C[C@@H](N)CN2C1=O
B12: cyclo(-Ile-^DArg-Arg-Trp-^DPro-Thr-) (peptide)
peptide: cyclo(I[dR]RW[dP]T)
SMILES: CC[C@H](C)[C@@H]1NC(=O)[C@H]([C@@H](C)O)NC(=O)[C@H]2CCCN2C(=O)[C@H](Cc2c[nH]c3ccccc23)NC(=O)[C@H](CCCNC(=N)N)NC(=O)[C@@H](CCCNC(=N)N)NC1=O
B13: cyclo(-Ile-^DLys-Arg-Trp-^DPro-Thr-) (peptide)
peptide: cyclo(I[dK]RW[dP]T)
SMILES: CC[C@H](C)[C@@H]1NC(=O)[C@H]([C@@H](C)O)NC(=O)[C@H]2CCCN2C(=O)[C@H](Cc2c[nH]c3ccccc23)NC(=O)[C@H](CCCNC(=N)N)NC(=O)[C@@H](CCCCN)NC1=O
B14: cyclo(-Ile-^DArg-Trp-Arg-^DPro-Thr-) (peptide)
peptide: cyclo(I[dR]WR[dP]T)
SMILES: CC[C@H](C)[C@@H]1NC(=O)[C@H]([C@@H](C)O)NC(=O)[C@H]2CCCN2C(=O)[C@H](CCCNC(=N)N)NC(=O)[C@H](Cc2c[nH]c3ccccc23)NC(=O)[C@@H](CCCNC(=N)N)NC1=O
B15: cyclo(-Ile-^DArg-Arg-1Nal-^DPro-Thr-) (peptide)
peptide: cyclo(I[dR]R[1Nal][dP]T)
SMILES: CC[C@H](C)[C@@H]1NC(=O)[C@H]([C@@H](C)O)NC(=O)[C@H]2CCCN2C(=O)[C@H](Cc2cccc3ccccc23)NC(=O)[C@H](CCCNC(=N)N)NC(=O)[C@@H](CCCNC(=N)N)NC1=O
B16: cyclo(-1Nal-^DArg-Arg-Trp-^DPro-Thr-) (peptide)
peptide: cyclo([1Nal][dR]RW[dP]T)
SMILES: C[C@@H](O)[C@@H]1NC(=O)[C@H]2CCCN2C(=O)[C@H](Cc2c[nH]c3ccccc23)NC(=O)[C@H](CCCNC(=N)N)NC(=O)[C@@H](CCCNC(=N)N)NC(=O)[C@H](Cc2cccc3ccccc23)NC1=O
B17: cyclo(-Trp-^DPhe-Trp-Orn-^DPro((4R)NH2)-Tic-) (peptide)
peptide: cyclo(W[dF]W[Orn][dPro(cis-4-NH2)][Tic])
SMILES: NCCC[C@@H]1NC(=O)[C@H](Cc2c[nH]c3ccccc23)NC(=O)[C@@H](Cc2ccccc2)NC(=O)[C@H](Cc2c[nH]c3ccccc23)NC(=O)[C@@H]2Cc3ccccc3CN2C(=O)[C@H]2C[C@@H](N)CN2C1=O
B18: cyclo(-Ile-^DArg-Arg-Ile-^DPro-Thr-) (peptide)
peptide: cyclo(I[dR]RI[dP]T)
SMILES: CC[C@H](C)[C@@H]1NC(=O)[C@H]([C@@H](C)O)NC(=O)[C@H]2CCCN2C(=O)[C@H]([C@@H](C)CC)NC(=O)[C@H](CCCNC(=N)N)NC(=O)[C@@H](CCCNC(=N)N)NC1=O
B19: cyclo(-Ile-^DArg-Arg-Trp-^DPro-Pro((3S)OH)-) (peptide)
peptide: cyclo(I[dR]RW[dP][Pro(3S-OH)])
SMILES: CC[C@H](C)[C@@H]1NC(=O)[C@@H]2[C@@H](O)CCN2C(=O)[C@H]2CCCN2C(=O)[C@H](Cc2c[nH]c3ccccc23)NC(=O)[C@H](CCCNC(=N)N)NC(=O)[C@@H](CCCNC(=N)N)NC1=O
B20: cyclo(-Trp-^DArg-Arg-Trp-^DPro-Thr-) (peptide)
peptide: cyclo(W[dR]RW[dP]T)
SMILES: C[C@@H](O)[C@@H]1NC(=O)[C@H]2CCCN2C(=O)[C@H](Cc2c[nH]c3ccccc23)NC(=O)[C@H](CCCNC(=N)N)NC(=O)[C@@H](CCCNC(=N)N)NC(=O)[C@H](Cc2c[nH]c3ccccc23)NC1=O
B21: cyclo(-Ile-^DArg-Arg-2Nal-^DPro-Thr-) (peptide)
peptide: cyclo(I[dR]R[2Nal][dP]T)
SMILES: CC[C@H](C)[C@@H]1NC(=O)[C@H]([C@@H](C)O)NC(=O)[C@H]2CCCN2C(=O)[C@H](Cc2ccc3ccccc3c2)NC(=O)[C@H](CCCNC(=N)N)NC(=O)[C@@H](CCCNC(=N)N)NC1=O
B22: cyclo(-Trp-^DPhe-Trp-Lys-^DPro((4R)NH2)-Tic-) (peptide)
peptide: cyclo(W[dF]WK[dPro(cis-4-NH2)][Tic])
SMILES: NCCCC[C@@H]1NC(=O)[C@H](Cc2c[nH]c3ccccc23)NC(=O)[C@@H](Cc2ccccc2)NC(=O)[C@H](Cc2c[nH]c3ccccc23)NC(=O)[C@@H]2Cc3ccccc3CN2C(=O)[C@H]2C[C@@H](N)CN2C1=O
B23: cyclo(-Trp-^DPhe-Trp-His-^DPro((4R)NH2)-Tic-) (peptide)
peptide: cyclo(W[dF]WH[dPro(cis-4-NH2)][Tic])
SMILES: N[C@@H]1C[C@@H]2C(=O)N3Cc4ccccc4C[C@H]3C(=O)N[C@@H](Cc3c[nH]c4ccccc34)C(=O)N[C@H](Cc3ccccc3)C(=O)N[C@@H](Cc3c[nH]c4ccccc34)C(=O)N[C@@H](Cc3c[nH]cn3)C(=O)N2C1
B24: cyclo(-Ile-^DHis-Arg-Trp-^DPro-Thr-) (peptide)
peptide: cyclo(I[dH]RW[dP]T)
SMILES: CC[C@H](C)[C@@H]1NC(=O)[C@H]([C@@H](C)O)NC(=O)[C@H]2CCCN2C(=O)[C@H](Cc2c[nH]c3ccccc23)NC(=O)[C@H](CCCNC(=N)N)NC(=O)[C@@H](Cc2c[nH]cn2)NC1=O
B25: cyclo(-Arg-^DPhe-Trp-Arg-^DPro((4R)NH2)-Tic-) (peptide)
peptide: cyclo(R[dF]WR[dPro(cis-4-NH2)][Tic])
SMILES: N=C(N)NCCC[C@@H]1NC(=O)[C@@H]2Cc3ccccc3CN2C(=O)[C@H]2C[C@@H](N)CN2C(=O)[C@H](CCCNC(=N)N)NC(=O)[C@H](Cc2c[nH]c3ccccc23)NC(=O)[C@@H](Cc2ccccc2)NC1=O
B26: cyclo(-Ile-^DCit-Arg-Trp-^DPro-Thr-) (peptide)
peptide: cyclo(I[dCit]RW[dP]T)
SMILES: CC[C@H](C)[C@@H]1NC(=O)[C@H]([C@@H](C)O)NC(=O)[C@H]2CCCN2C(=O)[C@H](Cc2c[nH]c3ccccc23)NC(=O)[C@H](CCCNC(=N)N)NC(=O)[C@@H](CCCNC(N)=O)NC1=O

target: chemokine receptor CXCR7 (UniProt P25106 1-362, limits assumed); test: cell-based or functional assay
Sequence (P25106 whole entry): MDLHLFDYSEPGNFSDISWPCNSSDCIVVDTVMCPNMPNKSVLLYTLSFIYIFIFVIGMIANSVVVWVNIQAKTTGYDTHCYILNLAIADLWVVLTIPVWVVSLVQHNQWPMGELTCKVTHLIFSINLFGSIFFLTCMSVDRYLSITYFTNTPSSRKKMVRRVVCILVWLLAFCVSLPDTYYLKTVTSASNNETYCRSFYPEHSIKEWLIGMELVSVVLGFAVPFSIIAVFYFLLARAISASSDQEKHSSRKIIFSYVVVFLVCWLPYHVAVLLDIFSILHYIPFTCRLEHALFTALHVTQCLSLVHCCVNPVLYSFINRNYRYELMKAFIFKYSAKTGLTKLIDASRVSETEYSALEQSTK

β-Arrestin EC50	Binder
90.5 nM	B1
20.9 nM	B2
12.8 nM	B3
0.1 nM	cyclo(I[dR]RW[dPip′]T) [cyclo(-Ile-^DArg-Arg-Trp-^DPip-Thr-)]
322 nM	B4
17.5 nM	B5
6.1 nM	B6
17.2 nM	B7
22.3 nM	B8
83.7 nM	B9
78.7 nM	B10
882 nM	cyclo([Pip′][dF]WR[dPro(cis-4-NH2)][Tic]) [cyclo(-Pip-^DPhe-Trp-Arg-^DPro((4R)NH2)-Tic-)]
13.6 nM	B11
6.7 nM	B12
86.7 nM	B13
62.5 nM	B14
17.9 nM	B15
28.5 nM	B16
26.1 nM	B17
79.7 nM	B18
123 nM	B19
538 nM	B20
0.4 nM	B21
138 nM	B22
20.4 nM	B23
546 nM	B24
248 nM	B25
472 nM	B26
